From patent publication US7235626B1, “Structured peptide scaffold for displaying turn libraries on phage” (Genentech, Inc., priority 1999, dated 2007)
Positions of bridges follow the written chain, without caps; N, C: chain ends. No end group written: not given here.

Experiments:
[1] = 1H NMR analysis of hairpin structure in solution; type: physicochemical; details: for structure in solution: NMR, ~2 mM peptide, pH 3.5
Experimental: NMR Spectroscopy. […] All spectra were acquired on a Bruker DRX-500 or a Varian Unity-400 spectrometer at 15° C. 2QF-COSY, TOCSY and ROESY spectra were acquired as described (Cavanagh et al. (1995) Protein NMR Spectroscopy, Principles and Practices (Academic Press, San Diego) with gradient coherence selection (van Zijl et al. (1995) J. Magn. Reson. 113A:265-270), or excitation sculpting (Hwang & Shaka, (1995) J. Magn. Reson. 112A, 275-279.) for water suppression. Proton resonances were assigned by standard methods (Wüthrich (1986) NMR of Proteins and Nucleic Acids (John Wiley and Sons, New York). 3JH^N-H^α were obtained by fitting Lorentzian lines to the antiphase doublets of HN—H^α peaks in 2QF-COSY spectra processed to high digital resolution in F2. ^3JH^N-H^α were extracted from COSY-35 spectra acquired on D2O solutions of the peptides. Distance and dihedral angle restraints were generated as described (Skelton et al. (1994) Biochemistry 33:13581-13592). 100 initial structures were calculated using the hybrid distance geometry/simulated annealing program DGII (Havel et al. (1991) Prog. Biophys. Mol. Biol. 56:43-78.); 80 of these were further refined by restrained molecular dynamics using the AMBER all-atom forcefield implemented in DISCOVER as described previously (Skelton et al. (1994) Biochemistry 33:13581-13592.). […]
Structure Calculation. Structures were calculated with 78 ROE-derived distance restraints (10 medium- and 28 long-range restraints; upper bounds of 5.4, 4.3, 3.4 or 3.0 Å) and 12 dihedral angle restraints. […]
NMR Analysis. […] Spectra were acquired and analyzed as described above. The structure of cd2 was calculated from 84 (including 13 medium- and 23 long-range) ROE-derived distance restraints and 13 dihedral angle restraints. […]
Analysis of Sidechain Rotamers. […] Given the large number of backbone-backbone distance and Φ dihedral angle restraints, the structures calculated for bhpw and cd2 do accurately represent the solution conformation of these peptides, except in the over determination of some side chain orientations.

[2] = Cysteine effective concentration (Ceff) measurement, thiol-disulfide equilibrium relative to glutathione; type: physicochemical
Experimental: Cysteine Effective Concentration Measurements. Glutathione stock solutions were prepared by mixing 3 volumes of 0.2 M reduced glutathione (GSH) with 1 volume of 0.1 M oxidized glutatione (GSSG). Aliquots were stored at −80° C. and were stable for several months; use of a single batch eliminated any error in ΔΔG values that might arise from variability of total glutathione concentration. Thiol-disulfide equilibria were established by mixing 50 μL peptide stock (approximately 3 mM in water) with 50 μL glutathione stock, deoxygenating the acidic solution with vacuum/argon cycles from a Firestone valve, then adding 300 μL of deoxygenated buffer by syringe (0.2 M tris, pH 8.0; 1 mM EDTA; 67 mM tris base to titrate glutathione), followed by further deoxygenation of the mixture. The final pH of all reaction mixtures was 8.10±0.05. Solutions were stirred under argon and maintained at 20° C. in a water bath. After 1.5 h, successive aliquots (100 μL) were removed with a gastight syringe, immediately quenched by discharge into 400 μL of 3.1 mM HCl, and analyzed by HPLC with a minimum of delay. Ceff values were calculated from the molar ratios of the reduced and oxidized forms of peptide and glutathione (peak area ratios corrected for absorbance differences measured by HPLC), assuming 0.025 M total glutathione monomer (i.e., neglecting the minor amount (<1%) of glutathione present in mixed disulfides with peptide): Ceff=([peptideox]/[peptidered])×([GSH]^2/[GSSG]) [GSH]+2[GSSG]=0.025 M [GSSG]=0.025 M/{2+3.26 (GSH peak area/GSSG peak area)} [peptideox]/[peptidered]=equilibrium peak area ratio/absorbance ratio
Two or three samples from each reaction mixture were analyzed; there were no shifts in populations with time, and calculated Ceff values typically varied by less than 5% (equivalent to 30 cal/mol uncertainty in ΔΔG).

[3] = Circular dichroism spectra of peptides; type: physicochemical; details: 10° C.; 20 μM peptide in 20 mM potassium phosphate, pH 7.0
Experimental: Terminal serine and lysine residues were added to improve the solubility of some variants of the CD4 peptide, which are otherwise uncharged. A similar modification was made to bhpW as a control. Non-turn residues that differ between bhpW and the CD4 loop are underlined. Coelution of reduced and oxidized peptides prevented measurement of Ceff for the T2, N3 variant of the CD4 peptide. Circular dichroism spectra were acquired at 10° C. with an Aviv Instruments, Inc. Model 202 spectrophotometer; peptide concentrations were 20 μM in 20 mM potassium phosphate, pH 7.0.

CD4 = details: normal CD4 interactions and CD4-mediated cell entry by HIV; cited from earlier work

Ac-CGNQGSFLTC-NH2 (disulfide 1-10 (inferred)) [cd1, disulfide-constrained peptide based on native CD4 hairpin residues 38-45]
structure in solution [1]: essentially unstructured

Ac-CTWEGNKLTC-NH2 (disulfide 1-10 (inferred)) [bhpW, tryptophan analog of the model β-hairpin peptide bhp]
hairpin conformation population ([1]; 15° C., estimate): > 80% | Ceff ([2]; Table 1, bhp peptides varied at residue 3, pH 8.10, 20° C.): 210 ± 4 mM | Ceff ([2]; Table 2, bhpW and CD4 C′-C″ loop peptides, pH 8.10, 20° C.): 210 ± 4 mM | [θ]215 [3]: −19,800 deg cm^2 dmol^−1

Ac-CTWQGSFLTC-NH2 (disulfide 1-10 (inferred)) [cd2, cd1 with substitutions G2T and N3W]
structure in solution [1]: well-ordered | [θ]215 [3]: −15,800 deg cm^2 dmol^−1

FCYICEVEDQCY (also: cyclic, type and places not given here) [cyclic peptide from loops of domain 1 of human CD4]
antagonism of CD4 interactions (CD4): antagonize
